Measurements reported in the nanobody polyreactivity screen of Harvey et al. (2022).

experiment: yeast display, Sf9 membrane polyspecificity reagent, FACS + sequencing; frameworks hold sequencing errors
Method in brief: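 Polyreactivity labels are assigned by the sorting gate from which each nanobody was recovered. The gates were low and high (top ~1%), set on anti-HA fluorescence for expression and streptavidin fluorescence for reagent binding. Before sorting, galactose-induced (36–48 hours) yeast display cells were stained for 1 hour at 4 °C with 10% biotinylated, detergent-solubilized Sf9 membrane reagent.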

Row | Sequence | polyreactivity (PSR sort gate)
1 | QVQLVESGGGLVQAGGSLRLSCAASGFIFGRYAMGWYRQAPGKERELVAAISSGDDTDYADSVKGRFTISRYNAKNTVYLLMNSLIPEDTAVYYCARSRFWSPVNYRRTIEFDSWGQGTQVTVSS | low polyreactivity
2 | QVQLVESGGGLVQAGGSLRLSCAASGRTFWRNAMGWYRQAPGKERELVAAINSGGRTYYADSVKGRFTISRDNAKNTVYLQMNSLKPEDTAVYYCAVYVHRFLDGRVRSYRGDYWGQGTQVTVSW | high polyreactivity
3 | QVQVVESGGGLVQAGGSLGLSCAASGGTFGYYAMGWYRQAPGKERELVAAINRSDGGTYYADSVKGRFTISRDKAKNTVYLQMTSLKPEDTAVYYCNADDFYYDEPYDYWGQGTQVTVSS | low polyreactivity
4 | QVQIVESGGGLVQAGGSHRLSCADSGRTFGVNTMGWYRQAPAKERQFVAAISSRSGSTYYADSVKGRFTISRDNAKNNVYLQMNSLKPEDTAVDYCAKGPLPRAGVKFDYWGHGTQVTVSS | low polyreactivity
5 | QVQLVESGGGLVQAGGSLRLSCAASGGIFYTYALGWYRQAPGKERELVAGINWSGSSTYYADSVKGRFTISRDNAKNTVYLQMNSLKPEDTAVYYCAARSYSYSTGDYWGQGTQVTVSS | low polyreactivity
6 | QVQLVESGGGLVQAGGSLRLSCAASGSTFASYAMGWYRQAPGKEREFVAAITRSGTSTYYADSVQGRFTISRDNAKNTVYLQMNSLKPEDTAVYYCNATRRTVGFGYWGQGTQVPVSS | high polyreactivity
7 | QVQLVESGGGLVQAGGRLRLSCAASGSTFIYYAMGWYRQAPGKERELVAAITGRGTRTYYADSVKGRFTISRDNAKNTVYLQMNSLKPEDTAVYYCNTLQTYLYDYWGQGTQVTVSS | high polyreactivity
8 | QVQHVESGGGLVQAGGSLRLSCAASGRTFAQYTMGWYRQAPGKERELVAGIDWSGGNTYYADSVKGRFTISRDNAKNTVYLQMNSLKPVDTAVYYCAAVPAFYNAWGEDYEYWGQGTQVTVSS | low polyreactivity
9 | QVQLVETGGGLVQAAGSLRLSTAASGSTYWCNTMGWYRQAPGKERELVADIRTSGGGTYYADSVKGRFTISRDNAKNTVYLQMNRLKPEDTAVYYCNAVPNWEMGSWGLGTQVTVSS | low polyreactivity
10 | QVQLVESGGGLVQAGGSLRLSCAASGRIFYGYAMGWYRQAPGKERELVAAISWRGDSTYYADSVKGRFTISRDNAKNTVYLQMNSLKPEDTAVYYCAARRPGYYYPSKFDYWGQGTQVTVSS | high polyreactivity
11 | QVQLVESGGGLVQAGGSLRLSCAASGSILSHNAMGWYRQAPGKERELVAAITTSGSTTYADSVKGRFTISRDNAKNTVYLQMNSLKPEDTAVYYCNARPDSWSDTAQNRYDYWGQGTQVTVSS | low polyreactivity
12 | QVKLVESGGGLVKAGGRLRLSCAASGSTFRKYTMGWYRQAPWKERELVAAITYRGDRTYYADSVKGRFTISRDNAKNNVYLQMNSLKQEDTAVYYCAAVYVRGDRYDYWGQGTQVTVSS | high polyreactivity
13 | QVQLVESGGGLVQAGGSLRLSCAASGSIFTKNSMGWYRQAPGKERELVAAISSGGSTYYADSVKGRFTISRDNAKNTVYLQMNSLKPEDTAVYYCARGASFFQKFYYWGQGTQVTVSS | high polyreactivity
14 | QVQLVESGGGLVQAGGSLRLSCAASGSIFGYYAMGWYRQAPGKERELVAAISYGGGRTYYADSVKGRFTISRDNAKNTVYLQMNSLKPEDTAVYYCAADVQSRYVGEGDYWGQGTQVTVSS | high polyreactivity
15 | QVQIVESGGGLVQAGGSLSLICAASGFIIDDNTMGWYRQAPGKERELVAAISYSAGSTYYADSVKGRFTISRDNAKNTVFLQMISVKTEDTAVYYCAAQHYWVTSYLSSYDYWGQGTQVTVSS | low polyreactivity
16 | QVQLVESGGGLVQAGGSLRLSCAASGSTFYEYAMGWYRQAPGKERELVAAITSGGSTYYADSVKGRFTISRDNAKNTVYLQMNSLKPEDTAVYYCAADPRIRRGDRSTHGYDYWGQGTQVTVSS | low polyreactivity
17 | QVQLVESGGGLVQAGGSLRISCAASGYTFGKNAMGWYRQAPGKERELVAGISSRGGSTYYADSVKGRFTISRDNAKNTLYLQMNSLKPEDTAVYYCAAVAYTGGPRKLGFNYWGQGTQVTVSS | high polyreactivity
18 | QVQLVESGGGLVQAGGSLRLSCAASGSTFCFNDMGWYIQAPGKEREFVAAISSIGGSTYYADSVKGRFKISRDNAKNTLYLQMNSLKPEDTAVYYCAVEVVRVYRYDYWGQGTQVTVSS | low polyreactivity
19 | QDQLVESGGGLVQAGASLRLSCAASGITFNVYAMGWYRQAPGKEREFVAAISYNGGRTYYADSVKGRFTISRDNAKNTVYLQMNSLKPEDTAVYYCAAQWAWGPYDYWGQGTQVTVSS | high polyreactivity
20 | QVQLVESGGGLVQAGGSLRLSCAASGSISKINAMGWYRQAPGKERELVAAINTGDSTYYADSVKGRFTISRDNAKNTVYLKMNSLKPVDSAVYYCAAEGSPTGYDYWGQGTQVTVTS | low polyreactivity
21 | QVQLVESGGGLVQAGGSLRLSCAASGFTFSRNAMGWYRQAPGKERELVAAIDSGGSTDYADSVKGRFTISRDNAKNTVYLQMNSLKPEDTAVYYCAIASSATRYVQLRQDYDYWGQGTQVTVSS | low polyreactivity
22 | QVQLVESGGGLVQAGGSLRLSCAASGFIFNFYAMGLYRQAPGKERELVAAISRSGGGTYYADSVKGRFTISRDNAKYTVYFQMNSLKPEDTAVYSCNVDKYRIVGFHSPYDYWGQGTQVTVSS | high polyreactivity

Row | Sequence | polyreactivity (PSR sort gate)
23 | QVQLVESGGGLVQAGGSLRLSCADTGRIFTRYAMGWYRQAPGKERELVASIRSGGSTYYADSVKGRFTISRDNAKNTVYLQMNSLKPEDTAVYFCAKGTFDLHYRKRYNYWGQGTQVTVSS | low polyreactivity
24 | QVQLVESGGGLVQAGGSLRLSCAASGITFQRYAMGWYRQAPGKERELVAAISWSGGSTYYADSVKGRFTISRDNAKNTVYLQMNSLKPVDTAVYYCAAELSVSTSHGVDYWGQGTQVTVSS | high polyreactivity
25 | QVQLVDSGGGLVQAGGSLRLSCAASGITFYYYAMGWYRQAAGKERELVAAISSRGGSTYYADSVKGRFTISRDNAKNTVYLQRNSLKPEDTAVYYCAALYGVSEEDDYWGQATQVTVSS | high polyreactivity
26 | QGQLVESGGGLVQAGGSLRLSCAASGFTLLPYAMGWYRQAPGKERELVAAISRRGVSTYYADSVKGRFTISRDNAKNTVYLQMISLKPEDTAVYYCAAKYRKWPMDYWGQGTQVTVSS | high polyreactivity
27 | QVQLVESGGGLVQAGGSLRLSCAASGLIFRWYAMGWYRQAPGKERELDAAISTSGGRTYYADSVKGRFTISRDNAKNTVYLQMNSLKPEDTAVYYCNAQHASWYTAYSVSFDYWGQGTQVTVSS | low polyreactivity
28 | QVQLVESGGGLVQAGGSLRLSCAASGSIFPHNAMGWYRQAPGKERELVAAISVSGGSTYYADSVKGRFTISRDNAKNTVYLQMNSLKPEDTAVYYCATRYGRARAYYYWGQGTQVTVSS | high polyreactivity
29 | QDQLVESGGGLVQAGGSLRLSCAATGSIFGFNTMGWYRQAPGKERELVPTINWRGGRTYYADSVKGRFTISRDNAKNTVYLLMNSLKPEDTAVYYFNTQGLAGQYQEHGYWGQGTQVTVSS | high polyreactivity
30 | QVQLVESGGGLVQAGGSLRLSCADSGRTFYPYVMGWYRQAPGKERELVADISWSGGRTYYADSVKGRFTISRDNAKNTVYLQMYSLKPEDTAVYYCCAGYRRRYNYWGQGTQVTVSS | high polyreactivity
31 | QVQLVESGGGLVQAGGSLRLSCAASGSTFTINVMGWYRQSPGKERELVAAINGGGRTNYADSVKGRFTISRDNAKNTVYLQMNSLKPEDTAVYYCAADGLSNVRQMDYWGQGTQVTVSS | low polyreactivity
32 | QVQLVESGGGLVQAGGSLRLSCAASGSIFQGYAMGWYRQAPGKERELVAAITASGGSTYYADSVKGRFTISRDNAMNTVYLQMNSLKPEDTAVYYCAAVRKSVGVKYDFWGQGTQVTVSS | high polyreactivity
33 | QVQLVESGGGLVQAGGSLRLSCAASGSIFKRNPMGRYRQAPGKERELVAGISRRAGSTYYADYVKGRFTISRDNAKNTDYLQMNSLKPEDTAVYYCATYSFRGTYRYDYWGQGTQVTVSS | high polyreactivity
34 | QVQLVESGGGLVQAGGSLRLSCAASGSICGSYAMGWYRQAPGKERELVAAITRSGSRTYYADSVKGRFTISRDNAKNTVYLQMISLKPEDTAVYFCATGYPGGFDYWGQGTQVTVSS | high polyreactivity
35 | QVQLVESGGGLVQAGGSLRLSCAASGSIFSTYTMGWYRQAPGKERELVAAITRSGGSTYYADSVKGRFTISRDNAKNTVYLQMNSLKPEDTAVYYCAARWKFPSSFYYWGQGTQVTVSS | high polyreactivity
36 | QVQLVESGGGLVQAGGSLRLSCAASGRTFFYYAMGWYRQAPGKERELVAGITKRGGSTYYADSVKGRFTISRDNAKNSVYLQMNSLKPEDSAVYYCAKSFTQSSTDGYWGQGTQVNVSS | high polyreactivity
37 | QVQHVESGGGLVQAGGSLRLSCAASGSIFYDYAMGWYRQAPGKERELVAAISKSDGSTYYADSVKGRFTISRDNAKNTVYLQMNSLKPEDTAVYYCNADLIYSYPPEYDYWGQGTQVTVSS | high polyreactivity
38 | QVQIVESGGGLVQAGGSLRLSFAASGSILYINAMGWYRQAPGKERELVAAISWSGDSTNYADSVKGRFTISRDNAKNTVYLQMNSLKPEDTAVYYCNADCDVVGVAHDYWGQGTQVTVSS | low polyreactivity
39 | QVQLVESGGGLVQAGGSLRLSCAASGYTFPLYAMGLYRQAPGKERELVADINIGGASTYYADSVKGRFTISRDNAKNTVYLQMNSLKPEDTAVYYCAKEYYDGYFPTFDYDYWGQGTQVTVSS | low polyreactivity
40 | QVQLVESGGGLVQAGGSLRLSCAPSGFSIIGNAMGWYRQAPGKERELVAAISRRGGSTYYADSVKGRFTISRDNAKNTVYLQLNSLKPEDTAVYYCATDPGARVHYPTGDYWGQGTQVTVSS | high polyreactivity
41 | QVQHVESGGGLVQAGGSLRLSCAASGFTFRRYAMGWYRQAPGKERELVAAISINGGSTYYADSVKGRFTISRDNAMNTVYLQMNSLKPEDTAVYYCNKGSVRGEYDYWGQGTLVTVSS | high polyreactivity
42 | QVQLVESGGGLVQAGGSLRLSCAASGFTFPSYPMGWYRQAPGKETELVAVISWGGTSTYYADSVKGRFTISRDNAKNTVYLQMNSLKPEDTAVYYCNRPSRYASTSRGYGYWGQGTQVTVSS | high polyreactivity
43 | QVQLVESGGGLVQAGGSLRLSCAASGSISRVYTMGWYRQAPGKQRELVAVIRRSSGSTYYADSLKGRFTISRDNAKNTVYFQMNSLKPEDTAVYYCAARGYYSGQTTIGMDYWGQGTQVTVSS | low polyreactivity
